Measured values published in patent US20190062420A1 (Janssen / Centocor, published 2019).
Each block holds one binder with its values, some of them ahead of it.

What was measured:
[1] = target: T1, human FcγRIIB (NM_004001) expressed on cells (human, UniProt P31994 43-310); experiment: flow cytometry; Raji cells (express predominantly FcγRIIB)
T1 construct: Transiently expressed on Expi293F cells; also called Expi293F FcγRIIB; HEK293F cells expressing FcγRIIB
T1 sequence: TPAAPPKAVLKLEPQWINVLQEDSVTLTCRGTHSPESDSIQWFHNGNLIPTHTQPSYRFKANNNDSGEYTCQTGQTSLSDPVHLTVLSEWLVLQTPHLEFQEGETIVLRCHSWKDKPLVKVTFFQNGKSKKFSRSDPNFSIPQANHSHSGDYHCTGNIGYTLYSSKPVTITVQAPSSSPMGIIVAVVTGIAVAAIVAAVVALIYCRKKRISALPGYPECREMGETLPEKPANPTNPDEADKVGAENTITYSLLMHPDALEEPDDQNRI
Description: (§1) 2×10⁵ cells per well were seeded in 96-well plate and blocked in BSA Stain Buffer (BD Biosciences, San Jose, USA) for 30 min at 4° C. Cells were incubated with test mAbtyrin on ice for 1.5 h at 4° C. After being washed twice with BSA stain buffer, the cells were incubated with R-PE labeled anti-human or anti-mouse IgG secondary antibody (Jackson Immunoresearch Laboratories) for 45 min at 4° C. The cells were washed twice in stain buffer and then resuspended in 150 μL of Stain Buffer containing 1:200 diluted DRAQ7 live/dead stain (Cell Signaling Technology, Danvers, USA). PE and DRAQ7 signals of the stained cells were detected by Miltenyi MACSQuant flow cytometer (Miltenyi Biotec, Auburn, USA) using B2 and B4 channel respectively. Live cells were gated on DRAQ7 exclusion and the geometric mean fluorescence signals were determined for at least 10,000 live events collected. FlowJo software (Tree Star) was used for analysis. Data was plotted as the logarithm of antibody concentration versus mean fluorescence signals. Nonlinear regression analysis was performed by GraphPad Prism 6 (GraphPad Software, Inc.) and EC₅₀ values were calculated.
Raji cell is a cell line derived from B cells that express predominantly FcγRIIB. The binding of mAbtyrins on Raji cells were investigated by flow cytometry assay described for testing mAbtyrin binding to FcγR. Binding of the mAbtyrins were detected by flow cytometry using a PE-labeled Goat F(ab′) against Human IgG(γ).

[2] = target: T1, human FcγRIIB (NM_004001) expressed on …; experiment: cell-based or functional assay
[3] = target: T1, human FcγRIIB (NM_004001) expressed on …; experiment: flow cytometry; Expi293F cells transfected with FcγRIIB
Description: (§2) Plasmids expressing cDNAs encoding human FcγRI (NM_000566) (SEQ ID NO: 44), FcγRIIA (NM_021642) (SEQ ID NO: 2), FcγRIIB (NM_004001) (SEQ ID NO: 3), and FcγRIIIA (NM_000569) (SEQ ID NO: 45) (Origene) were transiently transfected into Expi293F cells by ExpiFectamine293 transfection kit (Life Technologies). Flow cytometry assays were performed 48 h after transfection.
as §1

[4] = target: T2, human OX40 expressed on HEK-Blue: OX40 cells (human, UniProt P43489 29-277); experiment: flow cytometry; HEK-Blue: OX40 cells
T2 construct: also called CD134
T2 sequence: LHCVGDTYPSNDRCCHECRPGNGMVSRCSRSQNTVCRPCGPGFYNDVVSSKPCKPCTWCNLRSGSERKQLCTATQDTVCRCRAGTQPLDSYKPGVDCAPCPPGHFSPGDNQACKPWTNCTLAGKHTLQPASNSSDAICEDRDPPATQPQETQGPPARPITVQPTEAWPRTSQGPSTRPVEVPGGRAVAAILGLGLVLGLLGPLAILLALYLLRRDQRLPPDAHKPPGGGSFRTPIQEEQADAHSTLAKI
Description: as §1
The binding of mAbtyrins on OX40 expressed on cell surface were investigated by flow cytometry assay described for testing mAbtyrin binding to FcγR. A stable HEK-Blue reporter cell line expressing human OX40 (HEK-Blue: OX40) was established by transfection OX40 expression plasmid (pUNO1-hOX40) into HEK-Blue™ Null 1 cells engineered to express a secreted embryonic alkaline phosphatase (SEAP) reporter gene under the control of NF-κB-inducible promoter (IFN-β minimal promoter). mAbtyrins were incubated with HEK-Blue: OX40 cells and the binding was detected by flow cytometry using a PE-labeled Goat F(ab′)₂ against Human IgG(γ).

[5] = target: T3, human FcγRIIA (NM_021642) expressed on cells (human, UniProt P12318 36-317); experiment: flow cytometry; Expi293F cells transfected with FcγRIIA
T3 construct: Transiently expressed on Expi293F cells; also used here for FcγRIIA on human macrophages in the ADCP assay; also called Expi293F FcγRIIA; HEK293F cells expressing FcγRIIA
T3 sequence: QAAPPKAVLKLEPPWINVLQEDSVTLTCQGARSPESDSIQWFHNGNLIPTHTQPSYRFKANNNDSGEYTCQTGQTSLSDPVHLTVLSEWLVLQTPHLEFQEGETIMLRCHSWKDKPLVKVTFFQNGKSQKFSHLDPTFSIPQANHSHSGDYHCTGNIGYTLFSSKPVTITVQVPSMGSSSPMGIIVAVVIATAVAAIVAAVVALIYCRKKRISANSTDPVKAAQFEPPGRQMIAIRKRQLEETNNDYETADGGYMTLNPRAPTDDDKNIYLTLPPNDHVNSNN
Description: as §2, §1

[6] = target: T1, human FcγRIIB (NM_004001) expressed on …; experiment: flow cytometry; Raji cells (express predominantly FcγRIIB); remark: listed apart in the source
[7] = target: T3, human FcγRIIA (NM_021642) expressed on …; experiment: cell-based or functional assay

Binding to Raji cells mean signals at 10 µg/ml [1]: 9120 mean fluorescence signal
EC50 [1]: 9.91 µg/mL
% activity at 1 µg/ml with Raji cells (HEK-Blue: OX40 NF-κB reporter, relative to 1 µg/ml OX40 ligand) [2]: 107%
fold of agonism enhancement upon crosslinking (Raji cells) [2]: 15 fold
EC50 [3]: 1.05 µg/mL
Binding to HEK-Blue: OX40 cells (mean signal at 1 µg/ml) [4]: 16900 mean fluorescence signal
EC50 [5]: 0.287 µg/mL
fold binding signal over OX40SF2IgG2sigma at 10 µg/mL [6]: ≥ 6 fold
B1: OX40SF2IgG2sigma_R2BS56_HC-C (bispecific antibody)
heavy: QVQLVQSGAEVKKPGSSVKVSCKASGYTFKDYTMHWVRQAPGQGLEWIGGIYPNNGGSTYNQNFKDRVTLTADKSTSTAYMELSSLRSEDTAVYYCARMGYHGPHLDFDVWGQGTTVTVSSASTKGPSVFPLAPCSRSTSESTAALGCLVKDYFPEPVTVSWNSGALTSGVHTFPAVLQSSGLYSLSSVVTVPSSNFGTQTYTCNVDHKPSNTKVDKTVERKCCVECPPCPAPPAAASSVFLFPPKPKDTLMISRTPEVTCVVVDVSAEDPEVQFNWYVDGVEVHNAKTKPREEQFNSTFRVVSVLTVLHQDWLNGKEYKCKVSNKGLPSSIEKTISKTKGQPREPQVYTLPPSREEMTKNQVSLTCLVKGFYPSDIAVEWESNGQPENNYKTTPPMLDSDGSFFLYSKLTVDKSRWQQGNVFSCSVMHEALHNHYTQKSLSLSPGKGGGGGSGGGGSGGGGSGGGGSLPAPKNLVVSRVTEDSARLSWTAPDAAFDSFSIAYWEYRKGGEAIVLTVPGSERSYDLTGLKPGTEYFVLIYGVKGGWQSKPLSAIFTT
light: DIQMTQSPSSLSASVGDRVTITCKASQDVGAAVAWYQQKPGKAPKLLIYWASTRHTGVPSRFSGSGSGTDFTLTISSLQPEDFATYYCQQYINYPLTFGGGTKVEIKRTVAAPSVFIFPPSDEQLKSGTASVVCLLNNFYPREAKVQWKVDNALQSGNSQESVTEQDSKDSTYSLSSTLTLSKADYEKHKVYACEVTHQGLSSPVTKSFNRGEC
notes: mAbtyrin: anti-OX40 antibody OX40SF2, effector silent IgG2sigma, with linker and R2BS56 FN3 domain at the C-terminus of the heavy chain; also called mAbtyrin
% OX40 cell killed by macrophages (ADCP, 1 µg/ml) [7]: 91%

Binding to Raji cells mean signals at 10 µg/ml [1]: 8220 mean fluorescence signal
EC50 [1]: > 10 µg/mL
% activity at 1 µg/ml with Raji cells (HEK-Blue: OX40 NF-κB reporter, relative to 1 µg/ml OX40 ligand) [2]: 99.5%
fold of agonism enhancement upon crosslinking (Raji cells) [2]: 24 fold
EC50 [3]: 1.87 µg/mL
Binding to HEK-Blue: OX40 cells (mean signal at 1 µg/ml) [4]: 9320 mean fluorescence signal
EC50 [5]: 0.532 µg/mL
fold binding signal over OX40SF2IgG2sigma at 10 µg/mL [6]: ≥ 6 fold
B2: OX40SF2IgG2sigma_R2BS39_HC-C (bispecific antibody)
heavy: QVQLVQSGAEVKKPGSSVKVSCKASGYTFKDYTMHWVRQAPGQGLEWIGGIYPNNGGSTYNQNFKDRVTLTADKSTSTAYMELSSLRSEDTAVYYCARMGYHGPHLDFDVWGQGTTVTVSSASTKGPSVFPLAPCSRSTSESTAALGCLVKDYFPEPVTVSWNSGALTSGVHTFPAVLQSSGLYSLSSVVTVPSSNFGTQTYTCNVDHKPSNTKVDKTVERKCCVECPPCPAPPAAASSVFLFPPKPKDTLMISRTPEVTCVVVDVSAEDPEVQFNWYVDGVEVHNAKTKPREEQFNSTFRVVSVLTVLHQDWLNGKEYKCKVSNKGLPSSIEKTISKTKGQPREPQVYTLPPSREEMTKNQVSLTCLVKGFYPSDIAVEWESNGQPENNYKTTPPMLDSDGSFFLYSKLTVDKSRWQQGNVFSCSVMHEALHNHYTQKSLSLSPGKGGGGGSGGGGSGGGGSGGGGSLPAPKNLVVSRVTEDSARLSWTAPDAAFDSFLIQYQESEKVGEAIVLTVPGSERSYDLTGLKPGTEYTVSIYGVSHGPWYNYGEWRSNPLSAIFTT
light: B1 light
notes: mAbtyrin: anti-OX40 antibody OX40SF2, effector silent IgG2sigma, with linker and R2BS39 FN3 domain at the C-terminus of the heavy chain; also called mAbtyrin
% OX40 cell killed by macrophages (ADCP, 1 µg/ml) [7]: 83%

Binding to Raji cells mean signals at 10 µg/ml [1]: 5380 mean fluorescence signal
EC50 [1]: > 10 µg/mL
% activity at 1 µg/ml with Raji cells (HEK-Blue: OX40 NF-κB reporter, relative to 1 µg/ml OX40 ligand) [2]: 83.5%
fold of agonism enhancement upon crosslinking (Raji cells) [2]: 17 fold
EC50 [3]: 1.56 µg/mL
Binding to HEK-Blue: OX40 cells (mean signal at 1 µg/ml) [4]: 10400 mean fluorescence signal
EC50 [5]: 0.7 µg/mL
fold binding signal over OX40SF2IgG2sigma at 10 µg/mL [6]: ≥ 6 fold
B3: OX40SF2IgG2sigma_R2BS6_HC-C (bispecific antibody)
heavy: QVQLVQSGAEVKKPGSSVKVSCKASGYTFKDYTMHWVRQAPGQGLEWIGGIYPNNGGSTYNQNFKDRVTLTADKSTSTAYMELSSLRSEDTAVYYCARMGYHGPHLDFDVWGQGTTVTVSSASTKGPSVFPLAPCSRSTSESTAALGCLVKDYFPEPVTVSWNSGALTSGVHTFPAVLQSSGLYSLSSVVTVPSSNFGTQTYTCNVDHKPSNTKVDKTVERKCCVECPPCPAPPAAASSVFLFPPKPKDTLMISRTPEVTCVVVDVSAEDPEVQFNWYVDGVEVHNAKTKPREEQFNSTFRVVSVLTVLHQDWLNGKEYKCKVSNKGLPSSIEKTISKTKGQPREPQVYTLPPSREEMTKNQVSLTCLVKGFYPSDIAVEWESNGQPENNYKTTPPMLDSDGSFFLYSKLTVDKSRWQQGNVFSCSVMHEALHNHYTQKSLSLSPGKGGGGGSGGGGSGGGGSGGGGSLPAPKNLVVSRVTEDSARLSWTAPDAAFDSFLIQYQESEKVGEAIVLTVPGSERSYDLTGLKPGTEYTVSIYGVQYAAWYLPRHHEASNPLSAIFTT
light: B1 light
notes: mAbtyrin: anti-OX40 antibody OX40SF2, effector silent IgG2sigma, with linker and R2BS6 FN3 domain at the C-terminus of the heavy chain; also called mAbtyrin
% OX40 cell killed by macrophages (ADCP, 1 µg/ml) [7]: 82%
